Reference: patent US20220162334A1 (SHANGHAI HENLIUS BIOTECH, published 2022)

T1: human CD73 on CD73-expressing human tumor cells (MDA-MB-231, NCI-H292) (human, UniProt P21589 27-549)
T1 construct: whole, on cells; The cell line of each result is named under assay or readout; also called cell surface CD73; surface CD73
T1 sequence (looked up): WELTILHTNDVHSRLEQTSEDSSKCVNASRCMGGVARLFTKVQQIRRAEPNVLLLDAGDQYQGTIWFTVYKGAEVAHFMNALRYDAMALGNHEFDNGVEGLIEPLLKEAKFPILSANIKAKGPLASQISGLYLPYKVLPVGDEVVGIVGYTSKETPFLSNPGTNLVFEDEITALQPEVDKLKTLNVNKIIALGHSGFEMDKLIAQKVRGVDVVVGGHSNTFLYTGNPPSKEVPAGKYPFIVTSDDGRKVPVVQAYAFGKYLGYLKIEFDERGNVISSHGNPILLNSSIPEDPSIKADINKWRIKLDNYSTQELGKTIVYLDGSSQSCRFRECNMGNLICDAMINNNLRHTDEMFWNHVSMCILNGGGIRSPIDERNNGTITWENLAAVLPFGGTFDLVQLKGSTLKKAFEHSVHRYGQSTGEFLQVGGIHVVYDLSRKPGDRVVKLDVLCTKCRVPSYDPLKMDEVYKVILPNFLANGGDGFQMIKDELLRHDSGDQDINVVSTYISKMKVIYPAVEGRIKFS


Legend:
[1] = biological target: T1, human CD73 on CD73-expressing human …; assay: flow cytometry on MDA-MB-231 and NCI-H292 cells (FIGS. 11A, 11B)
Procedure: Whole cell binding ability of anti-CD73 antibodies were tested by incubating the MDA-MB-231 or NCI-H292 cells with the serial-diluted antibodies in FACS buffer (PBS with 2% FBS) at 4° C. for 30 minutes. Cells were washed with FACS buffer and the binding was detected with FITC-labeled goat anti-human IgG (H+L) antibodies (or PE-labeled goat anti-human IgG Fcγ) at 4° C. for another 30 minutes. The binding of antibodies to cell surface was measured by the mean fluorescent intensity (MFI) of staining. Flow cytometric analyses were performed using the Cytomics FC500 or CytoFLEX flow cytometry (Beckman Coulter Inc.). FIGS. 2B and 2C show selected anti-CD73 antibodies binding to CD73-expressing human tumor cells MDA-MB-231 (human breast adenocarcinoma) cells (FIG. 2B), and NCI-H292 (human mucoepidermoid pulmonary carcinoma) cells (FIG. 2C).
FIGS. 11A-11B also show CD73 binding of N1 and N4 variants. Selected variants were tested the binding to CD73-expressing MDA-MB-231 (FIG. 11A) and NCI-H292 (FIG. 11B) cells by flow cytometry. HLX01 (anti-CD20) was used as the negative control. […] N4 variants have better CD73 binding ability than N1 variants in these two cell lines. The rank of the whole cell binding ability is: N4#5, N4#6-4, N4#6-5>N4#6-2>N4#4-3, N4#6, N4#6-3, N1#9>N1#2.

[2] = biological target: T1, human CD73 on CD73-expressing human …; assay: flow cytometry on MDA-MB-231 cells, biotin-labeled antibody, streptavidin-FITC (FIG. 5A)
Procedure: The binding of anti-CD73 antibodies to cell surface CD73 were tested by incubating the MDA-MB-231 cells with the serially diluted biotin-labeled anti-CD73 antibodies in FACS buffer (PBS with 2% FBS) at 4° C. for 30 minutes. The cells were washed with FACS buffer and the binding was detected with streptavidin-FITC at 4° C. for 30 minutes. Flow cytometric analyses were performed using the Cytomics FC500 (Beckman Coulter Inc.).
The variable sequences of N1, N2 and N4 were cloned into human wild-type or C219S mutant IgG2 Fc backbone. Different IgG isotypes of N1 (FIG. 5A), N2 (FIG. 5B), N4 (FIG. 5C) were tested the binding to CD73-expressing human MDA-MB-231 cells by flow cytometry. Anti-CD73 ref-1 antibody and HLX01 (anti-CD20) were used as the positive and negative control respectively.

Binder | binding result [1] | binding result [2]
N4#6 (antibody, human IgG2, V domains shown, also called N4 variant N4#6) VH: QVQLVQSGAEVKKSGSSVKVSCKASGGTFSSYAISWVRQAPGQGLEWMGGIIPIFGTTNYAQKFQGRVTITADESTSIAYMELSSLRSEDTAVYYCASDGAVAAYDAFLIWGQGTMVTVSS VL: QAVLTQPSSVSGAPGQRVTISCTGTSSNIGAGYDIHWYQQLPGTAPKLLMYRFTRRPSGVPDRFSGSKSGTSASLTITGLQVEDEADYYCQSYDSGQRGWVFGGGTKLTVL | binds | –
N4#4-3 (antibody, human IgG2, V domains shown, also called N4 variant N4#4-3) VH: QVQLVQSGAEVKKSGSSVKVSCKASGGTFASYAISWVRQAPGQGLEWMGGIIPIFGTVNYAQKFQGRVTITADESTSIAYMELSSLRSEDTAVYYCASDGAVAAYDAFDIWGQGTMVTVSS VL: QAVLTQPSSVSGAPGQRVTISCTGTSSNIGQGYDIHWYQQLPGTAPKLLMYRFTRRPSGVPDRFSGSKSGTSASLTITGLQVEDEADYYCQSYDSGLRGWAFGGGTKLTVL | binds | –
N4#6-3 (antibody, human IgG2, V domains shown, also called N4 variant N4#6-3) VH: QVQLVQSGAEVKKSGSSVKVSCKASGGTFSSYAISWVRQAPGQGLEWMGGIIPIFGTANYAQKFQGRVTITADESTSIAYMELSSLRSEDTAVYYCASDGAVAAYDAFLIWGQGTMVTVSS VL: QAVLTQPSSVSGAPGQRVTISCTGTSSNIGLGYDIHWYQHLPGTAPKLLMYRFDRRPSGVPDRFSGSKSGTSASLTITGLQVEDEADYYCQSYDSGQRGWVFGGGTKLTVL | binds | –
N4#6-5 (antibody, human IgG2, V domains shown, also called N4 variant N4#6-5) VH: QVQLVQSGAEVKKSGSSVKVSCKASGGTFSSYAISWVRQAPGQGLEWMGRIIPIFGTTNYAQKFQGRVTITADESTSIAYMELSSLRSEDTAMYYCASDGAVAAYDAFLIWGQGTMVTVSS VL: QAVLTQPSSVSGAPGQRVTISCTGTSSNIGTGYDIHWYQQLPGTAPKLLMYRFTRRPSGVPDRFSGSKSGTSASLTITGLQVEDEADYYCQSYDSGQRGWVFGGGTKLTVL | binds | –
N4#6-4 (antibody, human IgG2, V domains shown, also called N4 variant N4#6-4) VH: QVQLVQSGAEVKKSGSSVKVSCKASGGTFSSYAISWVRQAPGQGLEWMGMIIPIFGTANYAQKFQGRVTITADESTSIAYMELSSLRSEDTAVYYCASDGAVAAYDAFLIWGQGTMVTVSS VL: QAVLTQPSSVSGAPGQRVTISCTGTSSNIGAGFDIHWYQQLPGTAPKLLMYRFSRRPSGVPDRFSGSKSGTSASLTITGLQVEDEADYYCQSYDSGQRGWVFGGGTKLTVL | binds | –
N4#5 (antibody, human IgG2, V domains shown, also called N4 variant N4#5) VH: QVQLVQSGAEVKKSGSSVKVSCKASGGTFSSYAIAWVRQAPGQGLEWMGGIIPIFGTVNYAQKFQGRVTITADESTSIAYMELSSLRSEDTAVYYCASDGAVAAYDAFSIWGQGTMVTVSS VL: QAVLTQPSSVSGAPGQRVTISCTGTSSNIGAGYDIHWYQQLPGTAPKLLMYRFTRRPSGVPDRFSGSKSGTSASLTITGLQVEDEADYYCQSYDSGLRGLVFGGGTKLTVL | binds | –
N4#6-2 (antibody, human IgG2, V domains shown, also called N4 variant N4#6-2) VH: QVQLVQSGAEVKKSGSSVKVSCKASGGTFSSYAISWVRQAPGQGLEWMGRIIPIFGTTNYAQKFQGRVTITADESTSIAYMELSSLRSEDTAVYYCASDGAVAAYDAFLIWGQGTMVTVSS VL: QAVLTQPSSVSGAPGQRVTISCTGTSSNIGHGYDIHWYQHLPGTAPKLLMYRFVRRPSGVPDRFSGSKSGTSASLTITGLQVEDEADYYCQSYDSGQRGWVFGGGTKLTVL | binds | –
N1#9 (antibody, human IgG2, V domains shown, also called N1 variant N1#9) VH: EVQLVESGGGLVQPGRSLRLSCAASGFTFDDYAMHWVRLAPGKGLEWVSGISWNSGSIGYADSVRGRFTISRDNAKNSLYLQMNSLRAEDTALYYCAKDMGWSLLKTNYYGMDVWGQGTTVTVSS VL: not shown | binds | –
N1#2 (antibody, human IgG2, V domains shown, also called N1 variant N1#2) VH: EVQLVESGGGLVQPGRSLRLSCAASGLTFDDYAMHWVRQAPGKGLEWVSGISWNSNSIGYADPVRGRFTISRDNAKNSLYLQMNSLRAEDTALYYCAKDMGWELLKTSYYGMDVWGQGTTVTVSS VL: not shown | binds | –
N1-tmtIgG1 (antibody, Heavy chain assembled from the VH entry and the constant region entry named tmtIgG1; also called lead N1; N1 clone, tmtIgG1 isotype) heavy: EVQLVESGGGLVQPGRSLRLSCAASGFTFDDYAMHWVRQAPGKGLEWVSGISWNSGSIGYADSVRGRFTISRDNAKNSLYLQMNSLRAEDTALYYCAKDMGWELLKTYYYGMDVWGQGTTVTVSSASTKGPSVFPLAPSSSTSGGTAALGCLVKDYFPEPVTVSWNSGALTSGVHTFPAVLQSSGLYSLSSVVTVPSSSLGTQTYICNVNHKPSNTKVDKRVEPKSCDKTHTCPPCPAPEFEGGPSVFLFPPKPKDTLMISRTPEVTCVVVDVSHEDPEVKFNWYVDGVEVHNAKTKPREEQYNSTYRVVSVLTVLHQDWLNGKEYKCKVSNKALPASIEKTISKAKGQPREPQVYTLPPSREEMTKNQVSLTCLVKGFYPSDIAVEWESNGQPENNYKTTPPVLDSDGSFFLYSKLTVDKSRWQQGNVFSCSVMHEALHNHYTQKSLSLSPGK light: not shown | – | binds
N1-wtIgG2 (antibody, Heavy chain assembled from VH and the named constant region entry; also called N1 clone, wtIgG2 isotype) heavy: EVQLVESGGGLVQPGRSLRLSCAASGFTFDDYAMHWVRQAPGKGLEWVSGISWNSGSIGYADSVRGRFTISRDNAKNSLYLQMNSLRAEDTALYYCAKDMGWELLKTYYYGMDVWGQGTTVTVSSASTKGPSVFPLAPCSRSTSESTAALGCLVKDYFPEPVTVSWNSGALTSGVHTFPAVLQSSGLYSLSSVVTVPSSNFGTQTYTCNVDHKPSNTKVDKTVERKCCVECPPCPAPPVAGPSVFLFPPKPKDTLMISRTPEVTCVVVDVSHEDPEVQFNWYVDGVEVHNAKTKPREEQFNSTFRVVSVLTVVHQDWLNGKEYKCKVSNKGLPAPIEKTISKTKGQPREPQVYTLPPSREEMTKNQVSLTCLVKGFYPSDIAVEWESNGQPENNYKTTPPMLDSDGSFFLYSKLTVDKSRWQQGNVFSCSVMHEALHNHYTQKSLSLSPGK light: not shown | – | binds
N1-mtIgG2 (antibody, Heavy chain assembled from VH and the named constant region entry; also called N1 clone, mtIgG2 isotype; C219S mutant IgG2) heavy: EVQLVESGGGLVQPGRSLRLSCAASGFTFDDYAMHWVRQAPGKGLEWVSGISWNSGSIGYADSVRGRFTISRDNAKNSLYLQMNSLRAEDTALYYCAKDMGWELLKTYYYGMDVWGQGTTVTVSSASTKGPSVFPLAPCSRSTSESTAALGCLVKDYFPEPVTVSWNSGALTSGVHTFPAVLQSSGLYSLSSVVTVPSSNFGTQTYTCNVDHKPSNTKVDKTVERKSCVECPPCPAPPVAGPSVFLFPPKPKDTLMISRTPEVTCVVVDVSHEDPEVQFNWYVDGVEVHNAKTKPREEQFNSTFRVVSVLTVVHQDWLNGKEYKCKVSNKGLPAPIEKTISKTKGQPREPQVYTLPPSREEMTKNQVSLTCLVKGFYPSDIAVEWESNGQPENNYKTTPPMLDSDGSFFLYSKLTVDKSRWQQGNVFSCSVMHEALHNHYTQKSLSLSPGK light: not shown | – | binds
